Source: US5248605

System: HpaII restriction endonuclease (R.HpaII) (Haemophilus parainfluenzae ATCC 49669)
Assay: cleavage_in_vitro
Conditions: IPTG-induced E. coli extract; 1x REact 8 buffer, 30 min 37 C; HpaII digest pattern on agarose gel

Substance: phage lambda DNA
- activity (units per g wet cells): > 50000
